Results published in the supplement of paper PMC10567573.

B1: KCNG1 (parent)
chain: AVNLSVSTLPSLREEEEQVRAHAP
B2: KCTD10 (parent)
chain: SSKEEQKLIATSNKPAVKLLYNRS

Variants of: B1
Assay: protein stability index of a GFP-peptide fusion (GPS, HEK-293T) (PSI 1-6); higher = more stable
Details: c terminus: a fixed tail appended
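Also: lentivirally expressed fusions sorted by FACS into six bins by GFP to DsRed ratio, PSI derived from sequencing read proportions per bin multiplied by bin number.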

Protein stability index of substitutions, site by site:
H22: M 5.28, S 5.49, W 3.02, Y 4.87, E 5.62, P 4.62, G 5.29, V 4.76, N 5.26, C 4.92, F 4.49, D 5.01, A 5.11, I 4.45, K 5.49, R 5.22, L 4.83, Q 4.57, T 4.91
E17: N 4.73, S 4.61, I 4.23, F 3.23, M 4.46, Q 4.69, T 4.32, A 4.67, R 4.61, V 4.38, Y 3.6, D 4.73, H 4.43, C 4.2, P 4.71, W 3.08, G 4.64, K 4.43, L 4.11
S11: A 5.43, W 4.35, R 4.88, D 5.02, I 4.79, C 4.3, L 4.75, Y 4.54, F 4.45, K 5.13, P 4.93, Q 5.01, N 4.95, E 5.14, H 5.07, M 4.54, G 3.95, V 4.83, T 4.84
L9: D 5.49, F 5.08, V 4.73, A 5.36, C 4.66, W 3.81, H 4.81, R 5.28, I 4.14, S 5.09, K 5.19, G 4.83, Q 4.88, N 5.42, Y 4.47, T 5.08, P 5.26, M 4.63, E 4.67
V19: W 4.46, K 5.07, G 5.21, T 4.9, A 4.98, Q 5.24, H 5.08, C 4.84, N 5.09, E 5.3, S 5.33, I 5.15, L 5.14, R 4.73, F 4.62, M 4.85, P 5.36, Y 4.71, D 5.33
E16: K 4.46, M 3.56, N 4.26, G 4.67, I 3.27, A 4.48, V 4.32, T 4.12, Y 3.63, L 3.82, P 3.96, C 4.26, F 3.59, H 4.49, R 4.18, Q 4.27, D 5.26, S 4.27, W 3.38
E14: G 4.56, P 4.8, Y 4.34, A 4.39, R 4.24, C 4.16, F 3.56, Q 4.87, V 4.39, K 4.3, I 4.37, H 4.56, L 4.51, W 3.9, D 4.96, S 4.98, T 4.54, N 4.46, M 4.11
E15: G 4.59, F 3.52, I 3.92, D 5.05, A 4.2, P 4.93, H 4.42, C 4.23, R 4.76, M 4.29, N 4.61, L 3.42, V 4.06, K 4.82, T 4.52, S 4.8, W 3.52, Q 4.79, Y 3.64
T8: Y 4.19, Q 5.07, R 4.94, S 4.82, V 4.45, W 3.11, P 5.14
A23: P 5.29, Y 4.3, T 4.87, K 5.1, W 4.32, G 5.71, D 5.3, H 4.87, M 4.83, L 5.02, Q 5.27, V 5.07, E 4.82, R 5.04, C 4.86, I 4.82, F 4.1, S 5.2, N 5.26
L12: F 4.59, I 4.79, D 5.41, A 5, T 5.38, N 5.11, Q 5.19, V 4.81, W 4.13, Y 4.77, M 4.88, S 5.33, P 5.13, R 5.35, H 5.17, K 4.67, C 4.42, E 5.62, G 5.21
P24: N 5.34, C 5.04, K 4.92, I 4.58, F 4.42, Q 5.23, A 5.57, R 5.08, M 4.55, Y 4.41, T 5.36, S 4.84, D 5.57, E 5.61, W 4, H 5.41, L 4.94, G 5.37, V 5.11
R13: K 4.85, T 5.25, E 5.25, H 4.99, A 5, C 4.99, N 5.3, Q 4.91, V 4.81, S 5.2, I 4.68, P 5.67, D 5.15, W 4.77, G 4.55, Y 4.67, M 5.03, F 4.78, L 4.77
Q18: N 4.95, K 4.75, R 4.55, A 4.75, M 4.77, C 4.98, I 4.82, S 5.26, E 5.57, L 5, V 4.55, T 4.99, H 4.67, D 5.2, W 4.05, F 4.17, Y 4.42, P 5.04, G 5.17
P10: G 4.71, T 4.49, N 4.7, Y 4.03, F 3.5, K 4.74, W 4.05, H 4.63, Q 5.05, I 3.67, D 5.06, A 4.59, S 4.62, V 4.61, R 4.29, C 4.35, E 5.04, M 4.28, L 4.06
R20: Y 4.75, D 5.96, G 5.48, I 5.14, N 5.3, P 5.17, E 5.63, H 5.06, V 4.94, T 5.27, Q 5.12, L 5.37, M 5.2, W 4.55, F 4.48, C 4.79, K 5.17, S 4.75, A 5.56
A21: W 3.35, L 4.71, F 3.75, C 4.74, V 4.36, T 4.54, K 4.64, Y 3.93, Q 5.25, I 4.11, E 4.52, R 4.99, M 4.27, P 4.97, D 5.32, N 4.28, S 4.96, H 4.68, G 5.13

Variants of: B2
Assay: as above
Details: c terminus: a fixed tail appended

Protein stability index: each site, then its substitutions
S1: I 3.56, L 3.69, W 3.08, C 3.82, Y 3.18, T 4.1, G 3.96, A 3.87, E 4.49, R 3.8, K 4.12, N 4.32, P 3.98, Q 4.22, M 4.26, F 3.6, V 3.84, H 4.21, D 3.9
S2: D 4.55, E 4.43, A 4.54, C 2.83
